Assay results from the supplement of paper PMC11246515.
± gives the standard deviation of the averaged measurements.

Assay: total protein half-life in vivo (active degradation + dilution); higher = more stable protein
[1] = E. coli NCM3722 delta-clpP delta-lon delta-hslV, growth: N-lim chemostat, doubling time 6 h
[2] = E. coli NCM3722 delta-hslV, growth: N-lim chemostat, doubling time 6 h
[3] = E. coli NCM3722 delta-lon, growth: N-lim chemostat, doubling time 6 h
[4] = wild type E. coli NCM3722, growth: C-lim chemostat, doubling time 3 h
[5] = wild type E. coli NCM3722, growth: N-lim chemostat, doubling time 12 h
[6] = wild type E. coli NCM3722, growth: P-lim chemostat, doubling time 12 h
[7] = E. coli NCM3722 delta-clpP, growth: N-lim chemostat, doubling time 6 h
[8] = E. coli NCM3722 delta-smpB, growth: N-lim chemostat, doubling time 6 h
[9] = wild type E. coli NCM3722, growth: C-lim chemostat, doubling time 6 h
[10] = wild type E. coli NCM3722, growth: C-lim chemostat, doubling time 12 h
[11] = wild type E. coli NCM3722, growth: N-lim chemostat, doubling time 6 h
[12] = wild type E. coli NCM3722, growth: P-lim chemostat, doubling time 6 h

Row | Sequence | total protein half-life in vivo [1] [h] | total protein half-life in vivo [2] [h] | total protein half-life in vivo [3] [h] | total protein half-life in vivo [4] [h] | total protein half-life in vivo [5] [h] | total protein half-life in vivo [6] [h] | total protein half-life in vivo [7] [h] | total protein half-life in vivo [8] [h] | total protein half-life in vivo [9] [h] | total protein half-life in vivo [10] [h] | total protein half-life in vivo [11] [h] | total protein half-life in vivo [12] [h]
1 | MRIEVTIAKTSPLPAGAIDALAGELSRRIQYAFPDNEGHVSVRYAAANNLSVIGATKEDKQRISEILQETWESADDWFVSE [P0ABR1] | 3.596 ± 0.025 | 2.28 | 2.08 ± 0.25 | 0.937 ± 0.5 | 0.715 | 0.859 | – | – | – | – | – | –
2 | MRIGQYQLRNRLIAAPMAGITDRPFRTLCYEMGAGLTVSEMMSSNPQVWESDKSRLRMVHIDEPGIRTVQIAGSDPKEMADAARINVESGAQIIDINMGCPAKKVNRKLAGSALLQYPDVVKSILTEVVNAVDVPVTLKIRTGWAPEHRNCEEIAQLAEDCGIQALTIHGRTRACLFNGEAEYDSIRAVKQKVSIPVIANGDITDPLKARAVLDYTGADALMIGRAAQGRPWIFREIQHYLDTGELLPPLPLAEVKRLLCAHVRELHDFYGPAKGYRIARKHVSWYLQEHAPNDQFRRTFNAIEDASEQLEALEAYFENFA [P0ABT5] | 4.65 ± 0.67 | – | – | 2.88 ± 0.28 | 3.47 | 8.25 ± 0.84 | 3.28 | 2.21 ± 0.077 | 3.67 ± 0.67 | 6.75 ± 0.78 | 2.23 | 5.13 ± 0.28
3 | MRILHTSDWHLGQNFYSKSREAEHQAFLDWLLETAQTHQVDAIIVAGDVFDTGSPPSYARTLYNRFVVNLQQTGCHLVVLAGNHDSVATLNESRDIMAFLNTTVVASAGHAPQILPRRDGTPGAVLCPIPFLRPRDIITSQAGLNGIEKQQHLLAAITDYYQQHYADACKLRGDQPLPIIATGHLTTVGASKSDAVRDIYIGTLDAFPAQNFPPADYIALGHIHRAQIIGGMEHVRYCGSPIPLSFDECGKSKYVHLVTFSNGKLESVENLNVPVTQPMAVLKGDLASITAQLEQWRDVSQEPPVWLDIEITTDEYLHDIQRKIQALTESLPVEVLLVRRSREQRERVLASQQRETLSELSVEEVFNRRLALEELDESQQQRLQHLFTTTLHTLAGEHEA [P0AG76] | 5.77 ± 0.37 | 4.67 ± 0.67 | 4.54 ± 0.071 | 2.6 ± 0.049 | 7.66 ± 0.56 | 7.9 ± 0.1 | 4.79 ± 1.6 | 4.5 ± 0.46 | 5.4 ± 0.27 | 9.11 ± 1.4 | 4.54 ± 0.17 | 5.46 ± 0.31
4 | MRIPRIYHPEPLTSHSHIALCEDAANHIGRVLRMGPGQALQLFDGSNQVFDAEITSASKKSVEVKVLEGQIDDRESPLHIHLGQVMSRGEKMEFTIQKSIELGVSLITPLFSERCGVKLDSERLNKKLQQWQKIAIAACEQCGRNRVPEIRPAMDLEAWCAEQDEGLKLNLHPRASNSINTLPLPVERVRLLIGPEGGLSADEIAMTARYQFTDILLGPRVLRTETTALTAITALQVRFGDLG [P0AGL7] | – | 5.44 ± 0.24 | 5.41 ± 0.067 | 2.98 ± 0.25 | 10.7 ± 0.42 | 12.31 ± 0.12 | 5.91 ± 0.64 | 5.19 ± 0.13 | 6.14 ± 1.9 | 10.1 ± 2.1 | 5.45 ± 0.37 | 6.05 ± 0.38
5 | MRIRYGWELALAALLVIEIVAFGAINPRMLDLNMLLFSTSDFICIGIVALPLTMVIVSGGIDISFGSTIGLCAIALGVLFQSGVPMPLAILLTLLLGALCGLINAGLIIYTKVNPLVITLGTLYLFAGSALLLSGMAGATGYEGIGGFPMAFTDFANLDVLGLPVPLIIFLICLLVFWLWLHKTHAGRNVFLIGQSPRVALYSAIPVNRTLCALYAMTGLASAVAAVLLVSYFGSARSDLGASFLMPAITAVVLGGANIYGGSGSIIGTAIAVLLVGYLQQGLQMAGVPNQVSSALSGALLIVVVVGRSVSLHRQQIKEWLARRANNPLP [P0AFS1] | – | – | – | – | – | – | – | – | 6.11 | 13.4 | – | –
6 | MRISLKKSGMLKLGLSLVAMTVAASVQAKTLVYCSEGSPEGFNPQLFTSGTTYDASSVPLYNRLVEFKIGTTEVIPGLAEKWEVSEDGKTYTFHLRKGVKWHDNKEFKPTRELNADDVVFSFDRQKNAQNPYHKVSGGSYEYFEGMGLPELISEVKKVDDNTVQFVLTRPEAPFLADLAMDFASILSKEYADAMMKAGTPEKLDLNPIGTGPFQLQQYQKDSRIRYKAFDGYWGTKPQIDTLVFSITPDASVRYAKLQKNECQVMPYPNPADIARMKQDKSINLMEMPGLNVGYLSYNVQKKPLDDVKVRQALTYAVNKDAIIKAVYQGAGVSAKNLIPPTMWGYNDDVQDYTYDPEKAKALLKEAGLEKGFSIDLWAMPVQRPYNPNARRMAEMIQADWAKVGVQAKIVTYEWGEYLKRAKDGEHQTVMMGWTGDNGDPDNFFATLFSCAASEQGSNYSKWCYKPFEDLIQPARATDDHNKRVELYKQAQVVMHDQAPALIIAHSTVFEPVRKEVKGYVVDPLGKHHFENVSIE | 6.22 ± 0.29 | 6.489 ± 0.018 | 6.6 ± 0.13 | 3.33 ± 0.069 | 12.9 ± 0.92 | 13.1 ± 0.31 | 6.39 ± 1.1 | 5.83 ± 0.096 | 6.97 ± 1.4 | 14.3 ± 1.9 | 6.058 ± 0.029 | 6.06 ± 0.45
7 | MRITIILVAPARAENIGAAARAMKTMGFSDLRIVDSQAHLEPATRWVAHGSGDIIDNIKVFPTLAESLHDVDFTVATTARSRAKYHYYATPVELVPLLEEKSSWMSHAALVFGREDSGLTNEELALADVLTGVPMVADYPSLNLGQAVMVYCYQLATLIQQPAKSDATADQHQLQALRERAMTLLTTLAVADDIKLVDWLQQRLGLLEQRDTAMLHRLLHDIEKNITK | – | 3.98 ± 0.83 | 4.08 ± 0.37 | – | 5.26 ± 0.45 | 11.5 ± 2.5 | 4 ± 0.61 | 3.38 ± 0.046 | 5.62 ± 0.99 | 7.53 ± 0.58 | 3.72 ± 0.22 | 4.87 ± 0.26
8 | MRITIYTRNDCVQCHATKRAMENRGFDFEMINVDRVPEAAEALRAQGFRQLPVVIAGDLSWSGFRPDMINRLHPAPHAASA [P0AC65] | 2.48 ± 0.033 | – | – | – | – | – | – | – | – | – | – | –
